Patent publication US20260209316A1

Tests used:
[1] = target: mucin domain-deleted Zaire GP (GPdMuc) (Ebola (Zaire) virus (EBOV)) (UniProt Q05320); test: BLI competition on Zaire GPdMuc (upper table); competitor 15H10
[2] = target: mucin domain-deleted Zaire GP (GPdMuc) (Ebola (Zaire) virus (EBOV)) (UniProt Q05320); test: BLI competition on Zaire GPdMuc (upper table); competitor 13C6
[3] = target: mucin domain-deleted Zaire GP (GPdMuc) (Ebola (Zaire) virus (EBOV)) (UniProt Q05320); test: BLI competition on Zaire GPdMuc (upper table); competitor KZ52 (self)
[4] = target: mucin domain-deleted Zaire GP (GPdMuc) (Ebola (Zaire) virus (EBOV)) (UniProt Q05320); test: BLI competition on Zaire GPdMuc (upper table); competitor 380L
[5] = target: mucin domain-deleted Zaire GP (GPdMuc) (Ebola (Zaire) virus (EBOV)) (UniProt Q05320); test: BLI competition on Zaire GPdMuc (upper table); competitor 316L
[6] = target: mucin domain-deleted Zaire GP (GPdMuc) (Ebola (Zaire) virus (EBOV)) (UniProt Q05320); test: BLI competition on Zaire GPdMuc (upper table); competitor mAb114
[7] = target: mucin domain-deleted Sudan GP (GPdMuc) (Sudan virus (SUDV)) (UniProt Q7T9D9); test: BLI competition on Sudan GPdMuc (column in both tables); competitor 15H10
[8] = target: mucin domain-deleted Sudan GP (GPdMuc) (Sudan virus (SUDV)) (UniProt Q7T9D9); test: BLI competition on Sudan GPdMuc (column in both tables); competitor 316L
[9] = target: mucin domain-deleted Sudan GP (GPdMuc) (Sudan virus (SUDV)) (UniProt Q7T9D9); test: BLI competition on Sudan GPdMuc; competitor 15H10
[10] = target: mucin domain-deleted Sudan GP (GPdMuc) (Sudan virus (SUDV)) (UniProt Q7T9D9); test: BLI competition on Sudan GPdMuc (column in both tables); competitor mAb166
[11] = target: mucin domain-deleted Sudan GP (GPdMuc) (Sudan virus (SUDV)) (UniProt Q7T9D9); test: BLI competition on Sudan GPdMuc (column in both tables); competitor 16F6
[12] = target: mucin domain-deleted Sudan GP (GPdMuc) (Sudan virus (SUDV)) (UniProt Q7T9D9); test: BLI competition on Sudan GPdMuc; competitor 16F6
[13] = target: mucin domain-deleted Sudan GP (GPdMuc) (Sudan virus (SUDV)) (UniProt Q7T9D9); test: BLI competition on Sudan GPdMuc; competitor 316L
[14] = target: mucin domain-deleted Sudan GP (GPdMuc) (Sudan virus (SUDV)) (UniProt Q7T9D9); test: BLI competition on Sudan GPdMuc; competitor mAb166

Substance | % inhibition of binding [1] | % inhibition of binding [2] | % inhibition of binding [3] | % inhibition of binding [4] | % inhibition of binding [5] | % inhibition of binding [6] | % inhibition of binding [7] | % inhibition of binding [8] | % inhibition of binding [9] | % inhibition of binding [10] | % inhibition of binding [11] | % inhibition of binding [12] | % inhibition of binding [13] | % inhibition of binding [14]
KZ52 (antibody) | -1% | 13% | 96% | 10% | 8% | 9% |  |  |  |  |  |  |  | 
HIV-specific antibody VRC01 |  |  |  |  |  |  | -333% | 20.6% | -296% | -82.7% | -7.53% | 31% | 29.9% | -43.1%
